These results are taken from patent publication US9650447 (dated 2017).

The target in experiment [1] is T1, C3d (human, UniProt P01024). The experiment can be described thus: other (NMR titration, weak site).
The target in experiment [2] is T1, C3d. The experiment can be described thus: ITC, two-site fit, tight site. (In ITC the heat of successive injections is recorded.)
Experiment [3] deals with T1, C3d. The experiment can be described thus: other (NMR titration, tight site, upper limit).
In experiment [4] the target is T2, EBV gp350 (Epstein-Barr virus, UniProt P03200).
T2 chain: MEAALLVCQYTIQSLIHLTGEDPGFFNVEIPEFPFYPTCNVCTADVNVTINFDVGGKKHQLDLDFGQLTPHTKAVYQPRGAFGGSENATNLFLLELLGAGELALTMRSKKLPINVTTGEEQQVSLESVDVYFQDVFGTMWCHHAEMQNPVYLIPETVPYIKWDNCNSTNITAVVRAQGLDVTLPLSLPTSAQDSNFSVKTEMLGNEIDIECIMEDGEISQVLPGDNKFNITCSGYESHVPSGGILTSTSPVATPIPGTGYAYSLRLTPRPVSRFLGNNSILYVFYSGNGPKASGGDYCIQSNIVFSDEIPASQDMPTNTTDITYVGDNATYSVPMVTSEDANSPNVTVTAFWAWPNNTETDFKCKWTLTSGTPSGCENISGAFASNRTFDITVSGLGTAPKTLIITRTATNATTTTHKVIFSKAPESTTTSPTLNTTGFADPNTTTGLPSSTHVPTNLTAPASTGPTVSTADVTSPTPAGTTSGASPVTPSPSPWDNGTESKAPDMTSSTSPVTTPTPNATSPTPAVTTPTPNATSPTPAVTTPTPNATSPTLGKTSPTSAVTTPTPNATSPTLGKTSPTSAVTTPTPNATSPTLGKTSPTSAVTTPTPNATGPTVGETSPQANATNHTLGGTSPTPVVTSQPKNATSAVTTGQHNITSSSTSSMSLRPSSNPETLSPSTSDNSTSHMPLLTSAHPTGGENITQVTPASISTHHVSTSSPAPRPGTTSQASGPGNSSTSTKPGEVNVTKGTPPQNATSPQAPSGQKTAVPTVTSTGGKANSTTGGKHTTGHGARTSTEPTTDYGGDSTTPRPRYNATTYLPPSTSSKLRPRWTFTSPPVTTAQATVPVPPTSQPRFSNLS
The experiment can be described thus: other (NMR titration, upper limit).

The target of experiment [5] is T2, EBV gp350. The experiment can be described thus: ITC.
In experiment [6] the target is T1, C3d. The experiment can be described thus: ITC, two-site fit, weak site.

A value given as a limit tells only on which side of the number the result lay.

T1 sequence (P01024 1002-1303): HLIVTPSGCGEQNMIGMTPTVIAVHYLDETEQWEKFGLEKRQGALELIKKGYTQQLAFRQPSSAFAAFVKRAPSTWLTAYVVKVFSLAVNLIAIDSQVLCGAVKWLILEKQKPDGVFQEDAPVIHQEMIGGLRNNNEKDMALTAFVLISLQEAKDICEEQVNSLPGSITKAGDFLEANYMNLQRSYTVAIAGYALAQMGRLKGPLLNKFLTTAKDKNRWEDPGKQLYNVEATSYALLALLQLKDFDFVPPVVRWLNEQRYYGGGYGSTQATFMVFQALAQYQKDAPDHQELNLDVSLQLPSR

B1: human CR2 SCR1-2 (protein)
chain: ISCGSPPPILNGRISYYSTPIAVGTVIRYSCSGTFRLIGEKSLLCITKDKVDGTWDKPAPKCEYFNKYSSCPEPIVPGGYKIRGSTPYRHGDSVTFACKTNFSMNGNKSVWCQANNMWGPTRLPTCVS
A word on the Kd: it is the free concentration of one partner at which half of the binding sites on the other are occupied at equilibrium, for simple one-to-one binding. On to B1, for which the Kd with C3d [1] was 130 µM; with C3d [2], 130 nM; in the experiment with C3d [3], below 45 µM; in the experiment with EBV gp350 [4] it was below 60 µM; with EBV gp350 [5] it was 14 nM; in the experiment with C3d [6], 160 µM.
